Publication PMC6151752, “Characterization, Function, and Transcriptional Profiling Analysis of 3-Hydroxy-3-methylglutaryl-CoA Synthase Gene (GbHMGS1) towards Stresses and Exogenous Hormone Treatments in Ginkgo biloba” (Molecules : A Journal of Synthetic Chemistry and Natural …, 2017)

Substrate: CC(=O)CC(=O)SCCNC(=O)CCNC(=O)[C@H](O)C(C)(C)COP(=O)(O)OP(=O)(O)OC[C@H]1O[C@@H](n2cnc3c(N)ncnc32)[C@H](O)[C@@H]1OP(=O)(O)O
Experiment: initial rate versus acetoacetyl-CoA concentration, Michaelis-Menten fit
Assay type: biochemical, Ginkgo biloba
Conditions: acetoacetyl-CoA varied 20-100 μM (Km lies far above the range); pH, temperature and acetyl-CoA concentration not given
Excerpt: initial rate versus acetoacetyl-CoA concentration, Michaelis-Menten fit on GbHMGS1

B1: GbHMGS1 (Ginkgo biloba) (protein)
chain: MASHPENVGILAMDIYFPSTCVQQDALETFDGVSKGKYTIGLGQDCMAFCMDLEDVISMSLTVVSSLLDKYGIDPKRIGRLEVGSETVIDKSKSIKTWLMQIFEECGNSEIEGVDSTNACYGGTAALLNCVNWVESRSWDGRYGLVVSTDSAVYAEGPARPTGGAAAVAMLIGPNAPIVFESKYRGTHMSHAYDFYKPNLASEYPVVDGKLSQTCYLMGLDSCYKRFCNRFEEGEGRQFSLSDADYVAFHSPYNKLVQKSFARLLFNDFSRHASSVGKDAQEKLEPYAGLSDEDSYSSRELEKVSQQVARPLYDVKVQPSTLLPKQVGNMYTASLYAAFASIIHNEHDTLEGQRVLMFSYGSGLASTMFSLKIREGQHPFTLTNIADVMDVSSKLDSRHVLSPEDFMVNMKLMETLYGAKDFISCSDHNLLRSGTFYLTQVDSMYRRFYAQKVASPDDTHEKVKLANGIIHDQL
- Km: 689 ± 32.6 µM
- Vmax: 0.0371 µM/min
- kcat: 3.26 ± 0.218 s⁻¹
- kcat/Km: 4670 ± 167 M⁻¹ s⁻¹
